In article PMC3273807 (Nucleic Acids Research, 2011):

Biological target: the molecule itself
Experiment: fluorescence polarisation

B1: Wild-type FokI restriction endonuclease (enzyme)
chain: KIRTFGWVQNPGKFENLKRVVQVFDRNSKVHNEVKNIKIPTLVKESKIQKELVAIMNQHDLIYTYKELVGTGTSIRSEAPCDAIIQATIADQGNKKGYIDNWSSDGFLRWAHALGFIEYINKSDSFVITDVGLAYSKSADGSAIEKEILIEAISSYPPAIRILTLLEDGQHLTKFDLGKNLGFSGESGFTSLPEGILLDTLANAMPKDKGEIRNNWEGSSDKYARMIGGWLDKLGLVKQGKKEFIIPTLGKPDNKEFISHAFKITGEGLKVLRRAKGSTKFTRVPKRVYWEMLATNLTDKEYVRTRRALILEILIKAGSLKIEQIQDNLKKLGFDEVIETIENDIKGLINTGIFIEIKGRFYQLKDHILQFVIPNRGVTKQLVKSELEEKKSELRHKLKYVPHEYIELIEIARNSTQDRILEMKVMEFFMKVYGYRGKHLGGSRKPDGAIYTVGSPIDYGVIVDTKAYSGGYNLPIGQADEMQRYVEENQTRNKHINPNEWWKVYPSSVTEFKFLFVSGHFKGNYKAQLTRLNHITNCNGAVLSVEELLIGGEMIKAGTLTLEEVRRKFNNGEINF
- binding result: binds
